Experiment [1] deals with hamster αvβ3. As to the kind of experiment: 125-labeled Vitaxin binding affinities and number of binding sites on cell lines. The source says:
^125-labeled Vitaxin® was used to determine binding affinities and number of binding sites for human, rabbit and hamster cell lines. The affinity of Vitaxin® for hamster αvβ3 was approximately 2-3 fold lower than human αvβ3 while its affinity for rabbit αvβ3 was about 4-10 fold lower than human αvβ3.

The target in experiment [2] is T1, human β3 (αvβ3 on HEK293 cells) (Homo sapiens, UniProt P05106).
T1 construct: expressed in transfected cells; host or cells: HEK293
T1 sequence (P05106 27-788): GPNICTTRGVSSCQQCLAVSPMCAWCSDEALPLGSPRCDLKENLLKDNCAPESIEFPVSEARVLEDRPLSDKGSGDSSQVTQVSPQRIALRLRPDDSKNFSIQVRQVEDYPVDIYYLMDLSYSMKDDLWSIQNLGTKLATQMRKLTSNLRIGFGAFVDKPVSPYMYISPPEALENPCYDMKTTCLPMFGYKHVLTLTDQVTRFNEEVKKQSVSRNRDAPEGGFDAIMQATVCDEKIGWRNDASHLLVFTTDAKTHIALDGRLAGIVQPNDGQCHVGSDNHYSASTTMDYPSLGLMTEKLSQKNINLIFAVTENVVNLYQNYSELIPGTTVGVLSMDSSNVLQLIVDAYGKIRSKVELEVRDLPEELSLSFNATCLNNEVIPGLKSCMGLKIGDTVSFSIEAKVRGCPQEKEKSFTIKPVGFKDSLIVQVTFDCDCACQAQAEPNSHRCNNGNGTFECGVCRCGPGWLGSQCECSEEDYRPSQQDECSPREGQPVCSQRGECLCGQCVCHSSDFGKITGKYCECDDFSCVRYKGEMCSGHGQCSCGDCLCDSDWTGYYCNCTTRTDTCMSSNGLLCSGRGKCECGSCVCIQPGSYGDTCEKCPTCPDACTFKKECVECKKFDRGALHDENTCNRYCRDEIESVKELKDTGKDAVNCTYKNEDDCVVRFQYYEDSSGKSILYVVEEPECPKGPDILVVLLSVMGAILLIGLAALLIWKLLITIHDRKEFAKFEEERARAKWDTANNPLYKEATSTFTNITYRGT
T1 sequence (P06756 31-889 partner limits assumed): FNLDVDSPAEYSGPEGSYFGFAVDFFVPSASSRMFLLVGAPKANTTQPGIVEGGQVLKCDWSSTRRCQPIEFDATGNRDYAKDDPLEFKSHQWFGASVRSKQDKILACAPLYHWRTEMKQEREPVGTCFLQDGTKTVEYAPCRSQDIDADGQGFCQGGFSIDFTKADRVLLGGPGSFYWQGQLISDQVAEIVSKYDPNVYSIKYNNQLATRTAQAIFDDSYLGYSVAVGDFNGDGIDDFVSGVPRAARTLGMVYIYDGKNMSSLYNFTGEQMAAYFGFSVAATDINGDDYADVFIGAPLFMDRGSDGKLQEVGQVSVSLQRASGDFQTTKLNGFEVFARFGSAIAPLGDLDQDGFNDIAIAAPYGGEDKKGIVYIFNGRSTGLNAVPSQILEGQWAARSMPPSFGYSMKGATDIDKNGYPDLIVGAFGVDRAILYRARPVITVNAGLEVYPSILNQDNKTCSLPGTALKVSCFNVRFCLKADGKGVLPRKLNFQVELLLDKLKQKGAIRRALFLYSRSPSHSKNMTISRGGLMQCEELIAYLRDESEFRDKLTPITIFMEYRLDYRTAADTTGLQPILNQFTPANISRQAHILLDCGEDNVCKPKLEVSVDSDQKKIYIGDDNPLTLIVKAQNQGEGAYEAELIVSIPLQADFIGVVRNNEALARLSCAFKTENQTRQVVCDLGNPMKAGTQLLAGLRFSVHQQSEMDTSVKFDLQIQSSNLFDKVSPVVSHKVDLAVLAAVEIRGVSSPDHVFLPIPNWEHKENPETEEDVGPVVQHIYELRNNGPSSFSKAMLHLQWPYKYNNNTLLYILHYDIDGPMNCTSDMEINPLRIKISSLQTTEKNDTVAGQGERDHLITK
T1 sequence (P06756 891-1048 partner limits assumed): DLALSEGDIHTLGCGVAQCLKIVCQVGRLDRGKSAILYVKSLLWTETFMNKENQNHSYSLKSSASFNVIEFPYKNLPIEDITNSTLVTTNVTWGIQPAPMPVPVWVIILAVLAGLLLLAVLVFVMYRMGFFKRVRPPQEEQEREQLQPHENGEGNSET
Briefly: FACS analysis of HEK293 cells transfected with human β3 cDNA. In kind it is binding. The note with it: wild type human β3, flow cytometry, FIG. 4. An excerpt: FIG. 4. Binding of Integrin αvβ3 specific antibodies to human β3 containing rat residues.
Sequence comparison of residues 164 to 202 of β3 integrins from different species and design of mutations. To further characterize the binding epitope of Vitaxin®, the gene encoding β3 was cloned and sequenced from hamster cDNA. The amino acids in the region previously proposed to contain the LM609 binding epitope are shown above (dashed lines depict conserved residues). To determine which residues in the human sequence were essential for antibody binding, the amino acids shown in color were mutated to the corresponding rat residues. The resulting genes were transfected to HEK293 cells which express endogenous human αv. Resulting cell lines were analyzed by flow cytometry for antibody binding.
This protocol is used to assess the surface expression of integrins in HEK-293 cells transfected with various Integrin subunits. Primary antibodies bound to the integrins are detected by fluorochrome-conjugated secondary antibodies and analyzed by flow cytometry.
1. Wash adherent cells twice with 5 ml of PBS.
2. Add 1.5 ml of trypsin solution or cell dissociation solution, incubate at 37_C. foir 2 min.
3. Add 3 ml of culture medium or FACs buffer to the plate and loosen cells from the plate by pipetting. Count cells. Resuspend cells in FACs buffer at 5×10^6 per ml.
4. […]
On the technique in general: In flow cytometry, cells or beads pass a laser one at a time.

Experiment [3] has as its target T2, modified mouse Integrin αVβ3 with amino acids 164-202 of the human β chain (Mus musculus, UniProt O54890, A208T/I198L/K199E/N204D/N207T/Q196E/S226T).
T2 sequence (O54890 26-787 Q196E/I198L/K199E/N204D/N207T/A208T/S226T): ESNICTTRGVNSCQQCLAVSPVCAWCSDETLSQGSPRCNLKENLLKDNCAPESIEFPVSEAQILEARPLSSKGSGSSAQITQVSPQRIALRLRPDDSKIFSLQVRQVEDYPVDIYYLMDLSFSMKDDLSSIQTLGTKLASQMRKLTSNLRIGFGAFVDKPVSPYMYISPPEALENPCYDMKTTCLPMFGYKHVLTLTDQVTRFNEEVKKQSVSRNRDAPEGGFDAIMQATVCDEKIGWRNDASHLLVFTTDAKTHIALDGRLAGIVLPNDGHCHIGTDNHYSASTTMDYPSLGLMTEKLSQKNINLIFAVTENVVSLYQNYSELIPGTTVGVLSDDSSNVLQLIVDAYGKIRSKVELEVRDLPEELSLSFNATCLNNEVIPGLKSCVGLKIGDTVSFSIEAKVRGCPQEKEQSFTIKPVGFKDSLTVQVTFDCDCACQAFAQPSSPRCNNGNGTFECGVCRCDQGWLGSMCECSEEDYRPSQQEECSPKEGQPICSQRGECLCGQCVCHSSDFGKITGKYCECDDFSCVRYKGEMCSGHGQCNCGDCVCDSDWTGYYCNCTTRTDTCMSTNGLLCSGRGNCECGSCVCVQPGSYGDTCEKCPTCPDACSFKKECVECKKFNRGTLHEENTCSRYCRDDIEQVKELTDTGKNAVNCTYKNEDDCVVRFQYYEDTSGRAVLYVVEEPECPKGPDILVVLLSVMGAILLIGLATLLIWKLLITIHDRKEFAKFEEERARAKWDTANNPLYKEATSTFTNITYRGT
T2 sequence (P43406 31-885 partner): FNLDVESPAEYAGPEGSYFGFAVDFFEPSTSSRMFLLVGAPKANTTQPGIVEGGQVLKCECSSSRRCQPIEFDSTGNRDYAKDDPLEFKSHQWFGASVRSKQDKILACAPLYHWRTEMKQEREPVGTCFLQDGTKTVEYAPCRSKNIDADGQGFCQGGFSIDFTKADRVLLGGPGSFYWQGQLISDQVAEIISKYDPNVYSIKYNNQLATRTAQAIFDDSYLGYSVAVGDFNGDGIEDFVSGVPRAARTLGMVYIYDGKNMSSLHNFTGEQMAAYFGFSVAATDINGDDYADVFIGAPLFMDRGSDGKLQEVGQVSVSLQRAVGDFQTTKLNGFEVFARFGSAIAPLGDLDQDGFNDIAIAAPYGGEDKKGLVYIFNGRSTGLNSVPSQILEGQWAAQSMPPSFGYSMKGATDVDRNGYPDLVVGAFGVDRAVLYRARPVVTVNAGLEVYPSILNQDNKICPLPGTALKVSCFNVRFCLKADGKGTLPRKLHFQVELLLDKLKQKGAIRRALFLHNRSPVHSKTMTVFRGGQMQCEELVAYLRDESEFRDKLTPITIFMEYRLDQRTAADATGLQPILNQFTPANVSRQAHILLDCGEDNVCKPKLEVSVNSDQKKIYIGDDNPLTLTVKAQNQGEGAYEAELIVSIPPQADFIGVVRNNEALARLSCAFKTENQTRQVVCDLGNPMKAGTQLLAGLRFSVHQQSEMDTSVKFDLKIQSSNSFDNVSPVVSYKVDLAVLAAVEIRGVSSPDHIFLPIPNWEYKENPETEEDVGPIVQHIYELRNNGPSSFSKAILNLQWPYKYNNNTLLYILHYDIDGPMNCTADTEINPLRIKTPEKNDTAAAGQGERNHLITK
T2 sequence (P43406 887-1044 partner): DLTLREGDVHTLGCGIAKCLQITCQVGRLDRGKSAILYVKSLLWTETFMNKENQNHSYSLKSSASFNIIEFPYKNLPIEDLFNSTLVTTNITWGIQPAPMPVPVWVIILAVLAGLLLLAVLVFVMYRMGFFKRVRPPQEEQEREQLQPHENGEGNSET
Briefly: Binding to modified mouse Integrin αVβ3. The arrangement: species or system mouse/human chimera.

B1: Vitaxin®: humanized blocking monoclonal antibody that binds Integrin αVβ3 (MEDI-522, MedImmune); humanized and optimized version of LM609 (antibody, chains of the INN, looked up, V domains shown)
VH: QVQLVESGGGVVQPGRSLRLSCAASGFTFSSYDMSWVRQAPGKGLEWVAKVSSGGGSTYYLDTVQGRFTISRDNSKNTLYLQMNSLRAEDTAVYYCARHLHGSFASWGQGTTVTVSS
VL: EIVLTQSPATLSLSPGERATLSCQASQSISNFLHWYQQRPGQAPRLLIRYRSQSISGIPARFSGSGSGTDFTLTISSLEPEDFAVYYCQQSGSWPLTFGGGTKVEIK
Regarding B1, the Kd in experiment [1] (Hamster CCL-49 melanoma, read-out: Kp) amounted to 6.9 nM. For the same molecule, the “affinity for hamster αvβ3, fold lower than human αvβ3” value in experiment [1] (hamster vs human cell lines) is given as 2-3 fold. For the same molecule, the “binding to HEK293 cells transfected with human β3 cDNA” value in experiment [2] is on record as “detectable”. The “binding to modified mouse Integrin αVβ3 (human β chain amino acids 164-202)” value in experiment [3] is recorded as “do bind”.

(Values after US20040001835A1, “Prevention or treatment of cancer using integrin alphavbeta3 antagonists in combination with other agents” (MedImmune, Inc., priority 2002, published 2004).)
